Assay results: patent US12269859B2, “Synthetic immune receptors and methods of use thereof” (Angeles Therapeutics, Inc., priority 2016, dated 2025)

Test system: target antigen-expressing cell line
Assay: Jurkat NFAT-GFP assay, coculture with target cell lines expressing the respective target antigen (summary Table 10A)
Format: cell-based, human
Design: key: The signs +/−, +, 2+ etc. after the name of the cell lines indicate the relative degree of positivity on the Jurkat-NFAT-GFP assay as measured by the % GFP positive cells; +: relative degree of positivity on the Jurkat-NFAT-GFP assay as measured by the % GFP positive cells; 2+: relative degree of positivity on the Jurkat-NFAT-GFP assay as measured by the % GFP positive cells
Settings: relative % GFP positive cells; for NFAT-GFP ASSAY Positive Cell lines: HL60: SIR-expressing Jurkat-NFAT-GFP cells cocultured with HL60
Summary of the method: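 Jurkat cells carrying an NFAT-site IL-2 promoter driving GFP were lentivirally transduced with SIRs, puromycin-selected, then cocultured with antigen-expressing target cells at E:T about 1:2 for about 4–18 hours. GFP induction was read by flow cytometry as % GFP-positive cells versus parental Jurkat-NFAT-GFP.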

B1: 022217-X03 (protein)
chain: MALPVTALLLPLALLLHAARPLEGKPIPNPLLGLDSTGSGEDLKNVFPPEVAVFEPSKAEIAHTQKATLVCLATGFYPDHVELSWWVNGKEVHSGVCTDPQPLKEQPALNDSRYCLSSRLRVSATFWQNPRNHFRCQVQFYGLSENDEWTQDRAKPVTQIVSAEAWGRADCGITSASYHQGVLSATILYEILLGKATLYAVLVSALVLMAMVKRKDSRGRAKRSGSGATNFSLLKQAGDVEENPGPTSMALPVTALLLPLALLLHAARPDIQMTQSPSSLSASVGDRVTINCKASQDINSYLSWFQQKPGKAPKTLIYRANRLVDGVPSRFSGSGSGQDYTLTISSLQPEDFATYYCLQYDEFPLTFGGGTKVEIKGGGGSGGGGSGGGGSQVQLVQSGAEVKKPGASVKVSCKASGYTFTNYDINWVRQAPGQGLEWIGWIYPGDGSTKYNEKFKAKATLTADTSTSTAYMELRSLRSDDTAVYYCASGYEDAMDYWGQGTTVTVSSTREQKLISEEDGSGIQNPDPAVYQLRDSKSSDKSVCLFTDFDSQTNVSQSKDSDVYITDKCVLDMRSMDFKSNSAVAWSNKSDFACANAFNNSIIPEDTFFPSSDVPCDVKLVEKSFETDTNLNFQNLSVIGFRILLLKVAGFNLLMTLRLWSSRAKRSGSGVKQTLNFDLLKLAGDVESNPGPSRGHMTEYKPTVRLATRDDVPRAVRTLAAAFADYPATRHTVDPDRHIERVTELQELFLTRVGLDIGKVWVADDGAAVAVWTTPESVEAGAVFAEIGPRMAELSGSRLAAQQQMEGLLAPHRPKEPAWFLATVGVSPDHQGKGLGSAVVLPGVEAAERAGVPAFLETSAPRNLPFYERLGFTVTADVEVPEGPRTWCMTRKPGA
NFAT-GFP ASSAY Positive Cell lines: U266 (SIR-expressing Jurkat-NFAT-GFP cells cocultured with U266): U266 (+/−)

B2: 032216-W04 (protein)
chain: MALPVTALLLPLALLLHAARPDEIVLTQSPGSLAVSPGERVTMSCKSSQSVFFSSSQKNYLAWYQQIPGQSPRLLIYWASTRESGVPDRFTGSGSGTDFTLTISSVQPEDLAIYYCHQYLSSRTFGQGTKLEIKRLEGKPIPNPLLGLDSTGSGEDLKNVFPPEVAVFEPSKAEIAHTQKATLVCLATGFYPDHVELSWWVNGKEVHSGVCTDPQPLKEQPALNDSRYCLSSRLRVSATFWQNPRNHFRCQVQFYGLSENDEWTQDRAKPVTQIVSAEAWGRADCGITSASYHQGVLSATILYEILLGKATLYAVLVSALVLMAMVKRKDSRGRAKRSGSGATNFSLLKQAGDVEENPGPTSMDWIWRILFLVGAATGAHSFEQVQLQQPGAEVVKPGASVKMSCKASGYTFTSYYIHWIKQTPGQGLEWVGVIYPGNDDISYNQKFQGKATLTADKSSTTAYMQLSSLTSEDSAVYYCAREVRLRYFDVWGQGTTVTVSSTREQKLISEEDGSGIQNPDPAVYQLRDSKSSDKSVCLFTDFDSQTNVSQSKDSDVYITDKCVLDMRSMDFKSNSAVAWSNKSDFACANAFNNSIIPEDTFFPSSDVPCDVKLVEKSFETDTNLNFQNLSVIGFRILLLKVAGFNLLMTLRLWSSRAKRSGSGVKQTLNFDLLKLAGDVESNPGPSRGHMTEYKPTVRLATRDDVPRAVRTLAAAFADYPATRHTVDPDRHIERVTELQELFLTRVGLDIGKVWVADDGAAVAVWTTPESVEAGAVFAEIGPRMAELSGSRLAAQQQMEGLLAPHRPKEPAWFLATVGVSPDHQGKGLGSAVVLPGVEAAERAGVPAFLETSAPRNLPFYERLGFTVTADVEVPEGPRTWCMTRKPGA
modifications: Polynucleotide encoding a Synthetic Immune Receptor (SIR)
NFAT-GFP ASSAY Positive Cell lines: HL60: HL60 (+), MOLM13

B3: 060717-T02 (protein)
chain: MALPVTALLLPLALLLHAARPDIQMTQSPSSLSASVGDRVTINCKASQDINSYLSWFQQKPGKAPKTLIYRANRLVDGVPSRFSGSGSGQDYTLTISSLQPEDFATYYCLQYDEFPLTFGGGTKVEIKLEIQNPDPAVYQLRDSKSSDKSVCLFTDFDSQTNVSQSKDSDVYITDKCVLDMRSMDFKSNSAVAWSNKSDFACANAFNNSIIPEDTFFPSSDVPCDVKLVEKSFETDTNLNFQNLSVIGFRILLLKVAGFNLLMTLRLWSSRAKRSGSGVKQTLNFDLLKLAGDVESNPGPTSMDWIWRILFLVGAATGAHSFEQVQLVQSGAEVKKPGASVKVSCKASGYTFTNYDINWVRQAPGQGLEWIGWIYPGDGSTKYNEKFKAKATLTADTSTSTAYMELRSLRSDDTAVYYCASGYEDAMDYWGQGTTVTVSSTREDLKNVFPPEVAVFEPSKAEIAHTQKATLVCLATGFYPDHVELSWWVNGKEVHSGVCTDPQPLKEQPALNDSRYCLSSRLRVSATFWQNPRNHFRCQVQFYGLSENDEWTQDRAKPVTQIVSAEAWGRADCGITSASYHQGVLSATILYEILLGKATLYAVLVSALVLMAMVKRKDSRGRAKRSGSGATNFSLLKQAGDVEENPGPSRGHMTEYKPTVRLATRDDVPRAVRTLAAAFADYPATRHTVDPDRHIERVTELQELFLTRVGLDIGKVWVADDGAAVAVWTTPESVEAGAVFAEIGPRMAELSGSRLAAQQQMEGLLAPHRPKEPAWFLATVGVSPDHQGKGLGSAVVLPGVEAAERAGVPAFLETSAPRNLPFYERLGFTVTADVEVPEGPRTWCMTRKPGA
NFAT-GFP ASSAY Positive Cell lines: HL60: HL60 (2+)

B4: 012517-I12 (protein)
chain: MALPVTALLLPLALLLHAARPLEGKPIPNPLLGLDSTGSGEDLKNVFPPEVAVFEPSKAEIAHTQKATLVCLATGFYPDHVELSWWVNGKEVHSGVCTDPQPLKEQPALNDSRYCLSSRLRVSATFWQNPRNHFRCQVQFYGLSENDEWTQDRAKPVTQIVSAEAWGRADCGITSASYHQGVLSATILYEILLGKATLYAVLVSALVLMAMVKRKDSRGRAKRSGSGATNFSLLKQAGDVEENPGPTSMALPVTALLLPLALLLHAARPDIQLTQSPSSLSASVGDRVTITCRASQGISSVLAWYQQKPGKAPKLLIYDASSLESGVPSRFSGSGSGTDFTLTISSLQPEDFATYYCQQFNSSITFGQGTKLEIKRTVAAGGGGSGGGGSGGGGSQVQLVQSGAEVKKPGSSVKVSCKASGGTFSDYAISWVRQAPGQGLEWMGRIIPILGVANYAQKFQGRVTITADKSTRTAYMELSSLRSEDTAVYYCARNWADAFDIWGQGTMVTVSSASTREQKLISEEDGSGIQNPDPAVYQLRDSKSSDKSVCLFTDFDSQTNVSQSKDSDVYITDKCVLDMRSMDFKSNSAVAWSNKSDFACANAFNNSIIPEDTFFPSSDVPCDVKLVEKSFETDTNLNFQNLSVIGFRILLLKVAGFNLLMTLRLWSSRAKRSGSGVKQTLNFDLLKLAGDVESNPGPSRGHMTEYKPTVRLATRDDVPRAVRTLAAAFADYPATRHTVDPDRHIERVTELQELFLTRVGLDIGKVWVADDGAAVAVWTTPESVEAGAVFAEIGPRMAELSGSRLAAQQQMEGLLAPHRPKEPAWFLATVGVSPDHQGKGLGSAVVLPGVEAAERAGVPAFLETSAPRNLPFYERLGFTVTADVEVPEGPRTWCMTRKPGA
NFAT-GFP ASSAY Positive Cell lines: HL60: HL60 (+/−)

B5: 041216-G06 (protein)
chain: MALPVTALLLPLALLLHAARPDEIVLTQSPGSLAVSPGERVTMSCKSSQSVFFSSSQKNYLAWYQQIPGQSPRLLIYWASTRESGVPDRFTGSGSGTDFTLTISSVQPEDLAIYYCHQYLSSRTFGQGTKLEIKRLEGKPIPNPLLGLDSTGSGEDLKNVFPPEVAVFEPSKAEIAHTQKATLVCLATGFYPDHVELSWWVNGKEVHSGVCTDPQPLKEQPALNDSRYCLSSRLRVSATFWQNPRNHFRCQVQFYGLSENDEWTQDRAKPVTQIVSAEAWGRADCGITSASYHQGVLSATILYEILLGKATLYAVLVSALVLMAMVKRKDSRGRAKRSGSGATNFSLLKQAGDVEENPGPTSMDWIWRILFLVGAATGAHSFEQVQLQQPGAEVVKPGASVKMSCKASGYTFTSYYIHWIKQTPGQGLEWVGVIYPGNDDISYNQKFQGKATLTADKSSTTAYMQLSSLTSEDSAVYYCAREVRLRYFDVWGQGTTVTVSSTREQKLISEEDGSGTPFPSLAPPIMLLVDGKQQMVVVCLVLDVAPPGLDSPIWFSAGNGSALDAFTYGPSPATDGTWTNLAHLSLPSEELASWEPLVCHTGPGAEGHSRSTQPMHLSGEASTARTCPQEPLRGTPGGALWLGVLRLLLFKLLLFDLLLTCSCLCDPAGPLPSPATTTRLRALGSHRLHPATETGGREATSSPRPQPRDRRWGDTPPGRKPGSPVRAKRSGSGVKQTLNFDLLKLAGDVESNPGPSRGHMTEYKPTVRLATRDDVPRAVRTLAAAFADYPATRHTVDPDRHIERVTELQELFLTRVGLDIGKVWVADDGAAVAVWTTPESVEAGAVFAEIGPRMAELSGSRLAAQQQMEGLLAPHRPKEPAWFLATVGVSPDHQGKGLGSAVVLPGVEAAERAGVPAFLETSAPRNLPFYERLGFTVTADVEVPEGPRTWCMTRKPGA
modifications: Polynucleotide encoding a Synthetic Immune Receptor (SIR)
NFAT-GFP ASSAY Positive Cell lines: HL60: +
NFAT-GFP ASSAY Positive Cell lines: KG1 (SIR-expressing Jurkat-NFAT-GFP cells cocultured with KG1): KG1 (+/−)
NFAT-GFP ASSAY Positive Cell lines: RAJI (SIR-expressing Jurkat-NFAT-GFP cells cocultured with RAJI): RAJI (+/−), HL60
NFAT-GFP ASSAY Positive Cell lines: THP1 (SIR-expressing Jurkat-NFAT-GFP cells cocultured with THP1): +/−

B6: 090116-F02 (protein)
chain: MALPVTALLLPLALLLHAARPLEGKPIPNPLLGLDSTGSGEDLKNVFPPEVAVFEPSKAEIAHTQKATLVCLATGFYPDHVELSWWVNGKEVHSGVCTDPQPLKEQPALNDSRYCLSSRLRVSATFWQNPRNHFRCQVQFYGLSENDEWTQDRAKPVTQIVSAEAWGRADCGITSASYHQGVLSATILYEILLGKATLYAVLVSALVLMAMVKRKDSRGRAKRSGSGATNFSLLKQAGDVEENPGPTSMALPVTALLLPLALLLHAARPDDIVMTQSPDSLTVSLGERTTINCKSSQSVLDSSKNKNSLAWYQQKPGQPPKLLLSWASTRESGIPDRFSGSGSGTDFTLTIDSLQPEDSATYYCQQSAHFPITFGQGTRLEIKGGGGSGGGGSGGGGSQVQLVQSGAEVKKPGASVKVSCKASGYTFTNYGMNWVKQAPGQGLKWMGWINTYTGEPTYADDFKGRVTMTSDTSTSTAYLELHNLRSDDTAVYYCARWSWSDGYYVYFDYWGQGTTVTVSSTREQKLISEEDGSGIQNPDPAVYQLRDSKSSDKSVCLFTDFDSQTNVSQSKDSDVYITDKCVLDMRSMDFKSNSAVAWSNKSDFACANAFNNSIIPEDTFFPSSDVPCDVKLVEKSFETDTNLNFQNLSVIGFRILLLKVAGFNLLMTLRLWSSRAKRSGSGVKQTLNFDLLKLAGDVESNPGPSRGHMTEYKPTVRLATRDDVPRAVRTLAAAFADYPATRHTVDPDRHIERVTELQELFLTRVGLDIGKVWVADDGAAVAVWTTPESVEAGAVFAEIGPRMAELSGSRLAAQQQMEGLLAPHRPKEPAWFLATVGVSPDHQGKGLGSAVVLPGVEAAERAGVPAFLETSAPRNLPFYERLGFTVTADVEVPEGPRTWCMTRKPGA
modifications: Synthetic Immune Receptor (SIR)
NFAT-GFP ASSAY Positive Cell lines: HL60: HL60 (+/−)
